Experimental data from publication PMC5920536.

Assays:
[1] = target: T1, full-length human TRPML1 (transient receptor potential mucolipin 1) (human), Q9GZU1; test: cryo-EM structure; conditions: remark: other sources report otherwise
T1 chain: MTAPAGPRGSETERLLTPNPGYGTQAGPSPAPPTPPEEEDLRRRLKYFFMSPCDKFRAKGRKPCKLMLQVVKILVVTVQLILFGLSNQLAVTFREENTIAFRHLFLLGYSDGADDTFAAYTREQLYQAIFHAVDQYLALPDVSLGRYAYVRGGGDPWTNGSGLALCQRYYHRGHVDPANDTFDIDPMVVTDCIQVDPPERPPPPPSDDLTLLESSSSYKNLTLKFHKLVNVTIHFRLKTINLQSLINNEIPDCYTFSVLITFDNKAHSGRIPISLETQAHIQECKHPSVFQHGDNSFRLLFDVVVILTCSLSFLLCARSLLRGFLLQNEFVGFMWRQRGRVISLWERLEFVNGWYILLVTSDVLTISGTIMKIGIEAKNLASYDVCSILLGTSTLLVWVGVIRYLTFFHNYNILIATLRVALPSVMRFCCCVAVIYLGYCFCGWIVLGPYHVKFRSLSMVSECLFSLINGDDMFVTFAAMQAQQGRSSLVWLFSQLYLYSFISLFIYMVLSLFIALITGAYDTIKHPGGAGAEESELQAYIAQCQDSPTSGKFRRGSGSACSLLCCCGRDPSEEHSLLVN

[2] = target: T1, full-length human TRPML1 (transient …); test: cryo-EM structure; conditions: remark: other sources report otherwise

B1: full-length human TRPML1 (transient receptor potential mucolipin 1), Q9GZU1 1-580 (natural protein)
chain: MTAPAGPRGSETERLLTPNPGYGTQAGPSPAPPTPPEEEDLRRRLKYFFMSPCDKFRAKGRKPCKLMLQVVKILVVTVQLILFGLSNQLAVTFREENTIAFRHLFLLGYSDGADDTFAAYTREQLYQAIFHAVDQYLALPDVSLGRYAYVRGGGDPWTNGSGLALCQRYYHRGHVDPANDTFDIDPMVVTDCIQVDPPERPPPPPSDDLTLLESSSSYKNLTLKFHKLVNVTIHFRLKTINLQSLINNEIPDCYTFSVLITFDNKAHSGRIPISLETQAHIQECKHPSVFQHGDNSFRLLFDVVVILTCSLSFLLCARSLLRGFLLQNEFVGFMWRQRGRVISLWERLEFVNGWYILLVTSDVLTISGTIMKIGIEAKNLASYDVCSILLGTSTLLVWVGVIRYLTFFHNYNILIATLRVALPSVMRFCCCVAVIYLGYCFCGWIVLGPYHVKFRSLSMVSECLFSLINGDDMFVTFAAMQAQQGRSSLVWLFSQLYLYSFISLFIYMVLSLFIALITGAYDTIKHPGGAGAEESELQAYIAQCQDSPTSGKFRRGSGSACSLLCCCGRDPSEEHSLLVN
B1 was tested, and the stoichiometry N [1] was 4 and the stoichiometry N [2] was 4.
